Publication PMC12480911, “Visualization of liquid-liquid phase transitions using a tiny G-quadruplex binding protein”

Legend:
[1] = target: T1, SERF2 (human, UniProt P84101 1-59); test: fluorescence polarization; conditions: stated as sub-micromolar, FP/anisotropy: 20 mM NaPi pH 7.4, 100 mM KCl, 25 C (20-200 nM probe), NMR: same buffer, 4 C
T1 sequence: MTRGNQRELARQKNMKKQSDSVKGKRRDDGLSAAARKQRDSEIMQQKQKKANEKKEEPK

[2] = target: T1, SERF2; test: fluorescence polarization; stated as sub-micromolar; FP/anisotropy: 20 mM NaPi pH 7.4, 100 mM KCl, 25 C (20-200 nM probe); NMR: same buffer, 4 C; conditions: protein: recombinant; tags: His-SUMO removed; AF488-labeled in some assays; label: 6-FAM; G4
[3] = target: T1, SERF2; test: fluorescence polarization; 100 mM KCl; FP/anisotropy: 20 mM NaPi pH 7.4, 100 mM KCl, 25 C (20-200 nM probe); NMR: same buffer, 4 C; conditions: protein: recombinant, tags: His-SUMO removed, AF488-labeled in some assays
[4] = target: T1, SERF2; test: EMSA; 10 uM RNA, 5-40 uM SERF2; FP/anisotropy: 20 mM NaPi pH 7.4, 100 mM KCl, 25 C (20-200 nM probe); NMR: same buffer, 4 C; conditions: protein: recombinant; tags: His-SUMO removed; AF488-labeled in some assays; G4
[5] = target: T2, SERF2 K25A (human, UniProt P84101 1-59, K25A); test: EMSA; 5 uM each; minimally affected; FP/anisotropy: 20 mM NaPi pH 7.4, 100 mM KCl, 25 C (20-200 nM probe); NMR: same buffer, 4 C; conditions: protein: recombinant; tags: His-SUMO removed; label: 6-FAM (FP); unlabeled (NMR, EMSA); intramolecular G4
T2 sequence: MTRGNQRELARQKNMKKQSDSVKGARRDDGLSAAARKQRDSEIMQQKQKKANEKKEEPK

[6] = target: T3, SERF2 K23A (human, UniProt P84101 1-59, K23A); test: as above; conditions: protein: recombinant; tags: His-SUMO removed; label: 6-FAM (FP); unlabeled (NMR, EMSA); intramolecular G4
T3 sequence: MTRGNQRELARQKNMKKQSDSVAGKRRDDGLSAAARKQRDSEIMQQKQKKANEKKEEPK

[7] = target: T4, SERF2 N-terminal domain (human, UniProt P84101 1-32); test: fluorescence polarization; 100 mM KCl; FP/anisotropy: 20 mM NaPi pH 7.4, 100 mM KCl, 25 C (20-200 nM probe); NMR: same buffer, 4 C; conditions: protein: recombinant; label: 6-FAM (FP); unlabeled (NMR, EMSA); intramolecular G4
T4 chain: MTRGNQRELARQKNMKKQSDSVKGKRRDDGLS

[8] = target: T1, SERF2; test: NMR (HSQC, imino 1H, STD); FP/anisotropy: 20 mM NaPi pH 7.4, 100 mM KCl, 25 C (20-200 nM probe); NMR: same buffer, 4 C; conditions: protein: recombinant; tags: His-SUMO removed; AF488-labeled in some assays; dimeric G4 (2 strands)
[9] = target: T1, SERF2; test: fluorescence polarization/anisotropy; stated as sub-micromolar; FP/anisotropy: 20 mM NaPi pH 7.4, 100 mM KCl, 25 C (20-200 nM probe); NMR: same buffer, 4 C; conditions: protein: recombinant; tags: His-SUMO removed; AF488-labeled in some assays; label: Cy3; G4

## TERRA60
[1]; AF488-SERF2, similar to TERRA23
  Kd: < 1000 nM

## polyG
[1]
  Kd: < 1000 nM

## GGAGGAGGAGGAGGAGGAGGA (structured_RNA) [(GGA)7]
[2]
  Kd: < 1000 nM

## UGGGGUUGGGGUUGGGGUUGGGGUUGGGGUUGGGGU (structured_RNA) [(UG4U)6]
[3]; label: 6-FAM, G4
  Kd: 730 ± 250 nM

## GGGAAGGGAAGGGGAGUGGG (structured_RNA) [Stxbp5 rG4]
[4]
  binding result: binds

## GAAGGGGAGGGGGCUGGGGGGGGGCAGGG (structured_RNA) [Mark2 rG4]
[3]; label: 6-FAM (FP), G4
  Kd: 4500 ± 500 nM

## UAGGGUUAGGGUUAGGGUUAGGG (structured_RNA) [TERRA23]
[5]
  binding result: binds
[6]
  binding result: binds
[3]; label: 6-FAM (FP), unlabeled (NMR, EMSA), intramolecular G4
  Kd: 300 ± 20 nM
[7]
  binding signal: ~10 fold weaker than full length

## UUAGGGUUAGGG (structured_RNA) [TERRA12]
[8]
  binding result: binds

## GGGAGGGAGGGAGGGA (structured_RNA) [(GGGA)4]
[2]
  Kd: < 1000 nM

## GGGGCCGGGGCCGGGGCCGGGGCC (structured_RNA) [(G4C2)4 RNA]
[3]; label: 6-FAM, G4
  Kd: 880 ± 100 nM

## AGGAGGAGGAGGAGG (structured_RNA) [(AGG)5]
[9]
  Kd: < 1000 nM
